# Reference: patent publication US20070202116A1, “Treatment of micro-organism infection” (priority 2001, published 2007)
# Experiments:
# [1] = Storage stability and iv fluid compatibility of Aurograb; assay type: physicochemical
# Protocol: The lyophilised drug is stored in glass vials at 4° C. in the dark. Overnight transport at ambient temperatures is acceptable. Avoid prolonged exposure to bright light or excessive humidity. No change in Aurograb activity after storage at 4° C. (3 months) has been observed.
# After reconstitution with water, Aurograb must be stored at 4° C. and should be used within 14 hours.
# Saline for iv use is compatible with reconstituted Aurograb (at a 50:50 dilution).
# EMRSA-15 [2] = test: Data Set 1: murine sub-lethal infection, Aurograb alone; assay type: in vivo, S. aureus
# Description: The murine model of staphylococcal infection is widely used and is routinely used in the assessment of antimicrobial drugs. It is a good predictor of efficacy in infected humans since S. aureus is introduced intravenously to create a bacteraemia, from which the pathogen spreads to other organs, including the kidney, liver and spleen.
# Method: 20 female CD-1 mice were given a sub-lethal challenge (1.3×10^7 cfu) of a methicillin-resistant, vancomycin-sensitive strain of S. aureus (EMRSA-15, Typed Hospital Isolate, Central Manchester Healthcare Trust) in 100 μl iv bolus (all iv injections given via the lateral tail vein). 1 hour later, two groups of 10 mice, received, as 100 μl iv bolus: • 1. formulation buffer (Arginine-Urea), as negative control or • 2. Aurograb (2.0 mg/kg) in formulation buffer.
# All animals were sacrificed after a further 48 h and viable cfu per gram of organ were determined.
# EMRSA-15 [3] = test: Data Set 2: Aurograb dose ranging study in infected mice; assay type: in vivo, S. aureus; conditions: for Kidney log cfu per gram of tissue / Liver log cfu per gram of tissue / Spleen log cfu per gram of tissue: 48 hours; for Reduction in kidney bacterial counts: Experiment 1
# Protocol: Aims: Dose ranging study for use of Aurograb versus S. aureus strain EMRSA-15.
# Dose range is determined by comparing cfu (expressed as the log of the cfu per gram of tissue) for different organs at different doses.
# […] All mice terminated at 48 hours for culture of kidney, liver and spleen to determine organ viability counts.
# Results: expressed as log cfu per gram of tissue
# Experiment 1: S. aureus (1.5×10^7 cfu): EMRSA-15 (Table 5)
# Experiment 2: S. aureus (9×10^6 cfu): clinical isolate EMRSA-15—low dose Aurograb (Table 6)
# human blood = test: Blood compatibility study (haemolysis); conditions: human blood, 37° C., 1 hour; 0.1 mg/ml
# Protocol: This study was carried out by Biochemical Pharmacology department at Inveresk Research, Scotland, in order to assess the suitability of Aurograb for intravenous administration.
# Blood samples were taken from healthy human volunteers, transferred to tubes containing Aurograb, Aurograb vehicle, saponin or saline and incubated at 37° C. for 1 hour. After centrifugation, the amount of haemoglobin in the supernatant was then assessed to determine haemolysis.
# [4] = CD-1 mice, 1.3×10^7 cfu EMRSA-15 iv, Aurograb 2 mg/kg iv 1 hour later, 48 h
# [5] = Experiment 1, 1.5×10^7 cfu EMRSA-15, Aurograb 0.2 mg/kg single iv dose
# [6] = Experiment 1, 1.5×10^7 cfu EMRSA-15, Aurograb 1 mg/kg single iv dose
# [7] = Experiment 1, 1.5×10^7 cfu EMRSA-15, Aurograb 2 mg/kg single iv dose
# [8] = Experiment 2, 9×10^6 cfu clinical isolate EMRSA-15, Aurograb 0.2 mg/kg
# [9] = Experiment 2, doses as low as 0.2 mg
molecule,measurement,setting,value
"Aurograb: human genetic recombinant antibody (scFv with histidine tag, SEQ ID NO: 2) binding GrfA, a staphylococcal ABC transporter protein (protein, histidine tag; human single chain (scFv) recombinant antibody) scFv: MAKVQLLQSATEVKKPGASVKVSCKAYGYTFTDYGITWVRQAPGQGLEWMGWISAYNGYTNYAQKFQDRITMTTDASTSTAYMELRSLRPDDTAVLYCARDREDASLLRDGHWGQGTLVTVSSGGGGSGGGGSGGGGSGGGGSETTLTQSPGTLSLSPGERATLSCRASQIVSSSYLAWYQQKPGQAPRLLIYGASSRATGIPDRFSGSGSGTDFTLTISKLEPEDFAVYYCQHYGSSSPWTSRPRDQSDIKRAAALEHHHHHH",Activity after reconstitution with water,[1]; left at room temperature,slowly deteriorate
same,Change in activity after storage,"[1]; lyophilised drug, 4° C., 3 months",No change
same,Compatibility with saline for iv use,"[1]; reconstituted Aurograb, 50:50 dilution",compatible
same,Compatibility with 20% glucose and sodium bicarbonate buffer,"[1]; reconstituted Aurograb, reduction in ELISA activity",less compatible
same,Kidney Log cfu/g tissue,EMRSA-15 [2]; [4],7.20 ± 1.15 Log cfu/g tissue
same,Liver Log cfu/g tissue,EMRSA-15 [2]; [4],3.63 ± 0.68 Log cfu/g tissue
same,Spleen Log cfu/g tissue,EMRSA-15 [2]; [4],3.79 ± 0.82 Log cfu/g tissue
same,Reduction in viable organisms found in all three organs,"EMRSA-15 [2]; kidney, liver and spleen, Aurograb 2 mg/kg vs formulation buffer",10 fold
same,Kidney log cfu per gram of tissue,EMRSA-15 [3]; [5],8.5 ± 2.55 log cfu per gram of tissue
same,Liver log cfu per gram of tissue,EMRSA-15 [3]; [5],6.61 ± 3.03 log cfu per gram of tissue
same,Spleen log cfu per gram of tissue,EMRSA-15 [3]; [5],5.69 ± 1.16 log cfu per gram of tissue
same,Kidney log cfu per gram of tissue,EMRSA-15 [3]; [6],8.7 ± 2.6 log cfu per gram of tissue
same,Liver log cfu per gram of tissue,EMRSA-15 [3]; [6],5.40 ± 1.38 log cfu per gram of tissue
same,Spleen log cfu per gram of tissue,EMRSA-15 [3]; [6],5.33 ± 1.21 log cfu per gram of tissue
same,Kidney log cfu per gram of tissue,EMRSA-15 [3]; [7],7.62 ± 1.16 log cfu per gram of tissue
same,Liver log cfu per gram of tissue,EMRSA-15 [3]; [7],5.22 ± 1.39 log cfu per gram of tissue
same,Spleen log cfu per gram of tissue,EMRSA-15 [3]; [7],5.10 ± 1.29 log cfu per gram of tissue
same,Reduction in kidney bacterial counts,EMRSA-15 [3]; highest dose (2.0 mg/kg),0.8 log
same,Reduction in kidney bacterial counts,EMRSA-15 [3]; lower doses,no reduction
same,Kidney log cfu per gram of tissue,EMRSA-15 [3]; [8],7.14 ± 1.28 log cfu per gram of tissue
same,Liver log cfu per gram of tissue,EMRSA-15 [3]; [8],3.13 ± 0.44 log cfu per gram of tissue
same,Spleen log cfu per gram of tissue,EMRSA-15 [3]; [8],3.40 ± 0.64 log cfu per gram of tissue
same,Bacterial killing in the liver and spleen,EMRSA-15 [3]; [9],evidence of bacterial killing
same,Reduction in viable staphylococci in the kidneys,EMRSA-15 [3]; [9],no reduction
same,Drop in liver and spleen counts,EMRSA-15 [3]; single dose of 2.0 mg/kg in mice,approximately 2.0 log
same,Haemolysis classification (ASTM F756-93),human blood,non-haemolytic
